Common to all, as to assay: cell_activity
Data set [1] relates to TALEN 3' monomer for SEQ 93 site (synthetic construct). The following applies: pair with p3; corn protoplasts; unmethylated region.
Data set [2] concerns TALEN 5' monomer for SEQ 34 site (synthetic construct). The note with it: pair with p4; corn protoplasts; unmethylated region.
The subject of data set [3] is TALEN 3' monomer for SEQ 94 site (synthetic construct). The following applies: pair with p1; corn protoplasts; unmethylated region.
Data set [4] relates to TALEN 5' monomer for SEQ 35 site (synthetic construct). The note with it: pair with p2; corn protoplasts; unmethylated region.

Take “TCTACTAAAGAGGTAGCAC (double strand) [TALEN site 93]”: in data set [1], the activity (% integration) was 7.

In turn, “TCGTGTGACTGCTCCCAAA (double strand) [TALEN site 34]” displayed an activity (% integration) in data set [2] of 7.

Consider “TGAGTTTGAGACCCACCTG (double strand) [TALEN site 94]”, for which the activity (% integration) in data set [3] is 16.

Regarding “TCTCCTATCATAACGTTTG (double strand) [TALEN site 35]”, in data set [4], the activity (% integration) is 16.

The values above are taken from patent publication US20200024610.
